Experimental data from US20190015361A1 (published 2019).

How the values were obtained:
Aβ40 (t=0 days) = molecular target: T1, Aβ40 (t=0 days) (UniProt P05067 672-711); test: SPRi, Aβ forms spotted on chip, ovalbumin injected
T1 construct: domain: Aβ40; Dissolved in PBS and spotted at 20 µM on the SPRi chip immediately after solubilization; mainly low-MW oligomers by CE; also called Aβ40 low-MW oligomers; Aβ40 solubilized in PBS

Aβ42 (t=24 days) [1] = molecular target: T2, Aβ42 (t=24 days) (human, UniProt P05067 672-713); test: SPRi, Aβ forms spotted on chip, ovalbumin injected
T2 construct: domain: Aβ42 (residues 1-42 of the Aβ peptide); enriched in high-MW oligomers by CE; also called Aβ42 high-MW oligomers

Aβ42 (t=0 days) = molecular target: T3, Aβ42 (t=0 days) (human, UniProt P05067 672-713); test: SPRi, Aβ forms spotted on chip, ovalbumin injected
T3 construct: domain: Aβ42 (residues 1-42 of the Aβ peptide); HFIP / CH3CN-Na2CO3-NaOH preparation, diluted to 20 µM in phosphate buffer and spotted on the SPRi chip immediately; mainly low-MW oligomers by CE; also called Aβ42 low-MW oligomers

Aβ42 (t=24 days) [2] = molecular target: T2, Aβ42 (t=24 days); test: SPRi, Aβ spotted on chip at 20 µM, LL-37 injected 1-100 µM, nonlinear fit of response at equilibrium

T2 sequence (P05067 672-713 limits assumed): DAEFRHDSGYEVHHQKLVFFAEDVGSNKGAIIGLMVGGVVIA
T1 sequence (P05067 672-711 limits assumed): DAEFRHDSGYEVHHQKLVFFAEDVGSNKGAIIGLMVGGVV
T3 sequence (P05067 672-713 limits assumed): as the sequence (P05067 672-713 limits assumed) above

binding result (Aβ40 (t=0 days)) | binding result (Aβ42 (t=24 days) [1]) | binding result (Aβ42 (t=0 days)) | Ka (Aβ42 (t=24 days) [2]) [M⁻¹] | Kd (Aβ42 (t=24 days) [2]) [µM] | Binder
no binding (tested: 10 µM) | no binding (tested: 10 µM) | no binding (tested: 10 µM) | – | – | Ovalbumin (Sigma-Aldrich, A5503) (other, UniProt P01012 2-386, looked up, Negative control analyte in SPRi, injected at 10 µM; also called non-correlated protein; negative control sample) GSIGAASMEFCFDVFKELKVHHANENIFYCPIAIMSALAMVYLGAKDSTRTQINKVVRFDKLPGFGDSIEAQCGTSVNVHSSLRDILNQITKPNDVYSFSLASRLYAEERYPILPEYLQCVKELYRGGLEPINFQTAADQARELINSWVESQTNGIIRNVLQPSSVDSQTAMVLVNAIVFKGLWEKAFKDEDTQAMPFRVTEQESKPVQMMYQIGLFRVASMASEKMKILELPFASGTMSMLVLLPDEVSGLEQLESIINFEKLTEWTSSNVMEERKIKVYLPRMKMEEKYNLTSVLMAMGITDVFSSSANLSGISSAESLKISQAVHAAHAEINEAGREVVGSAEAGVDAASVSEEFRADHPFLFCIKHIATNAVLFFGRCVSP
– | – | – | 49200 | 20.3 | LLGDFFRKSKEKIGKEFKRIVQRIKDFLRNLVPRTES (peptide, UniProt P49913 134-170, looked up, range 134-170; Synthetic peptide; from Innovagen for SPRi/TEM/CD, from AnaSpec for the cell culture work; also called cathelicidin LL-37) [human cathelicidin peptide LL-37]
